Key:
[1] = target: Histone H3 recombinant protein, human, Upstate 14-494 (human) (UniProt P68431); assay: RPA, competition: +free pRb peptide 1000 nM
[2] = target: ERK1 (p44), human, Cell Signaling Technology 7416 (human) (UniProt P27361); assay: RPA, competition: +free pRb peptide 1000 nM
[3] = target: ERK2 (p42), human, Biosource PHO 0104 (human) (UniProt P28482); assay: RPA, competition: +free pRb peptide 1000 nM
[4] = target: pErk1/2-BSA 2.7x peptide-protein conjugate (human; bovine); assay: RPA, competition: +free pRb peptide 1000 nM
[5] = target: Erk1-BSA 2.7x peptide-protein conjugate (human; bovine); assay: RPA, competition: +free pRb peptide 1000 nM
[6] = target: ERK1 (p42) active (phospho), human, Active Motif 31 152 (human) (UniProt P27361); assay: RPA, competition: +free pRb peptide 1000 nM
[7] = target: Histone H3-BSA 2.7x peptide-protein conjugate (bovine); assay: RPA, competition: +free pRb peptide 1000 nM
[8] = target: ERK1 (p44) inactive (GST tagged), human, Invitrogen PV 3312 (human) (UniProt P27361); assay: RPA, competition: +free pRb peptide 1000 nM
[9] = target: pRb-BSA 1x peptide-protein conjugate (bovine); assay: RPA, competition: +free pRb peptide 1000 nM
[10] = target: ERK1 (p44) active (GST tagged), human, Invitrogen PV 3311 (human) (UniProt P27361); assay: RPA, competition: +free pRb peptide 1000 nM
[11] = target: Histone H3 recombinant protein, calf, Roche 11 034 758 001 (calf) (UniProt P68432); assay: RPA, competition: +free pRb peptide 1000 nM
[12] = target: pRb recombinant protein, human, Active Motif 31 128 (human) (UniProt P06400); assay: RPA, competition: +free pRb peptide 1000 nM
[13] = target: pRb recombinant protein, human, Active Motif 31 128 (human) (UniProt P06400); assay: RPA standard curves
[14] = target: pRb-BSA 1x peptide-protein conjugate (bovine); assay: RPA standard curve, assay 1, LOD back-calculated from one-site fit
[15] = target: pRb recombinant protein, human, Active Motif 31 128 (human) (UniProt P06400); assay: as above
[16] = target: Histone H3 recombinant protein, human, Upstate 14-494 (human) (UniProt P68431); assay: RPA, normal assay
[17] = target: Erk1-BSA 2.7x peptide-protein conjugate (human; bovine); assay: RPA, normal assay
[18] = target: Histone H3-BSA 2.7x peptide-protein conjugate (bovine); assay: RPA, normal assay
[19] = target: pRb-BSA 1x peptide-protein conjugate (bovine); assay: RPA, normal assay
[20] = target: pRb recombinant protein, human, Active Motif 31 128 (human) (UniProt P06400); assay: RPA, normal assay
[21] = target: pRb-BSA 1x peptide-protein conjugate (bovine); assay: RPA standard curves, mean of duplicate assays
[22] = target: pRb recombinant protein, human, Active Motif 31 128 (human) (UniProt P06400); assay: RPA standard curves, mean of duplicate assays
[23] = target: pRb-BSA 1x peptide-protein conjugate (bovine); assay: RPA standard curve, assay 2, LOD back-calculated from one-site fit
[24] = target: pRb recombinant protein, human, Active Motif 31 128 (human) (UniProt P06400); assay: as above
[25] = target: Histone H3 recombinant protein, human, Upstate 14-494 (human) (UniProt P68431); assay: RPA, competition: +free pRb peptide 10 nM
[26] = target: ERK1 (p44), human, Cell Signaling Technology 7416 (human) (UniProt P27361); assay: RPA, competition: +free pRb peptide 10 nM
[27] = target: ERK2 (p42), human, Biosource PHO 0104 (human) (UniProt P28482); assay: RPA, competition: +free pRb peptide 10 nM
[28] = target: pErk1/2-BSA 2.7x peptide-protein conjugate (human; bovine); assay: RPA, competition: +free pRb peptide 10 nM
[29] = target: Erk1-BSA 2.7x peptide-protein conjugate (human; bovine); assay: RPA, competition: +free pRb peptide 10 nM
[30] = target: ERK1 (p42) active (phospho), human, Active Motif 31 152 (human) (UniProt P27361); assay: RPA, competition: +free pRb peptide 10 nM
[31] = target: Histone H3-BSA 2.7x peptide-protein conjugate (bovine); assay: RPA, competition: +free pRb peptide 10 nM
[32] = target: ERK1 (p44) inactive (GST tagged), human, Invitrogen PV 3312 (human) (UniProt P27361); assay: RPA, competition: +free pRb peptide 10 nM
[33] = target: pRb-BSA 1x peptide-protein conjugate (bovine); assay: RPA, competition: +free pRb peptide 10 nM
[34] = target: ERK1 (p44) active (GST tagged), human, Invitrogen PV 3311 (human) (UniProt P27361); assay: RPA, competition: +free pRb peptide 10 nM
[35] = target: Histone H3 recombinant protein, calf, Roche 11 034 758 001 (calf) (UniProt P68432); assay: RPA, competition: +free pRb peptide 10 nM
[36] = target: pRb recombinant protein, human, Active Motif 31 128 (human) (UniProt P06400); assay: RPA, competition: +free pRb peptide 10 nM
[37] = target: Histone H3 recombinant protein, human, Upstate 14-494 (human) (UniProt P68431); assay: RPA, competition: +free pRb peptide 100 nM
[38] = target: ERK1 (p44), human, Cell Signaling Technology 7416 (human) (UniProt P27361); assay: RPA, competition: +free pRb peptide 100 nM
[39] = target: ERK2 (p42), human, Biosource PHO 0104 (human) (UniProt P28482); assay: RPA, competition: +free pRb peptide 100 nM
[40] = target: pErk1/2-BSA 2.7x peptide-protein conjugate (human; bovine); assay: RPA, competition: +free pRb peptide 100 nM
[41] = target: Erk1-BSA 2.7x peptide-protein conjugate (human; bovine); assay: RPA, competition: +free pRb peptide 100 nM
[42] = target: ERK1 (p42) active (phospho), human, Active Motif 31 152 (human) (UniProt P27361); assay: RPA, competition: +free pRb peptide 100 nM
[43] = target: Histone H3-BSA 2.7x peptide-protein conjugate (bovine); assay: RPA, competition: +free pRb peptide 100 nM
[44] = target: ERK1 (p44) inactive (GST tagged), human, Invitrogen PV 3312 (human) (UniProt P27361); assay: RPA, competition: +free pRb peptide 100 nM
[45] = target: pRb-BSA 1x peptide-protein conjugate (bovine); assay: RPA, competition: +free pRb peptide 100 nM
[46] = target: ERK1 (p44) active (GST tagged), human, Invitrogen PV 3311 (human) (UniProt P27361); assay: RPA, competition: +free pRb peptide 100 nM
[47] = target: Histone H3 recombinant protein, calf, Roche 11 034 758 001 (calf) (UniProt P68432); assay: RPA, competition: +free pRb peptide 100 nM
[48] = target: pRb recombinant protein, human, Active Motif 31 128 (human) (UniProt P06400); assay: RPA, competition: +free pRb peptide 100 nM

Sequence of UniProt P28482 (P28482 2-360 limits assumed): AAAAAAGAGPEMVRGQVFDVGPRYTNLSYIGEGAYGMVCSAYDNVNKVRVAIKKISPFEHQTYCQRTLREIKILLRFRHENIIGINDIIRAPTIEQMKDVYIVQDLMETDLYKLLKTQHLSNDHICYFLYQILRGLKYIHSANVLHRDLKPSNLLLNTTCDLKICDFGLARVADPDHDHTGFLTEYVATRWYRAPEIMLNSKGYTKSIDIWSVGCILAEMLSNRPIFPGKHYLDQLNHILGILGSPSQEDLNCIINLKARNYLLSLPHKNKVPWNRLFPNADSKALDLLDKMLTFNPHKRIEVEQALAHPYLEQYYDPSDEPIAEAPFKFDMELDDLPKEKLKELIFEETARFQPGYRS
Sequence of UniProt P06400 (P06400 whole entry): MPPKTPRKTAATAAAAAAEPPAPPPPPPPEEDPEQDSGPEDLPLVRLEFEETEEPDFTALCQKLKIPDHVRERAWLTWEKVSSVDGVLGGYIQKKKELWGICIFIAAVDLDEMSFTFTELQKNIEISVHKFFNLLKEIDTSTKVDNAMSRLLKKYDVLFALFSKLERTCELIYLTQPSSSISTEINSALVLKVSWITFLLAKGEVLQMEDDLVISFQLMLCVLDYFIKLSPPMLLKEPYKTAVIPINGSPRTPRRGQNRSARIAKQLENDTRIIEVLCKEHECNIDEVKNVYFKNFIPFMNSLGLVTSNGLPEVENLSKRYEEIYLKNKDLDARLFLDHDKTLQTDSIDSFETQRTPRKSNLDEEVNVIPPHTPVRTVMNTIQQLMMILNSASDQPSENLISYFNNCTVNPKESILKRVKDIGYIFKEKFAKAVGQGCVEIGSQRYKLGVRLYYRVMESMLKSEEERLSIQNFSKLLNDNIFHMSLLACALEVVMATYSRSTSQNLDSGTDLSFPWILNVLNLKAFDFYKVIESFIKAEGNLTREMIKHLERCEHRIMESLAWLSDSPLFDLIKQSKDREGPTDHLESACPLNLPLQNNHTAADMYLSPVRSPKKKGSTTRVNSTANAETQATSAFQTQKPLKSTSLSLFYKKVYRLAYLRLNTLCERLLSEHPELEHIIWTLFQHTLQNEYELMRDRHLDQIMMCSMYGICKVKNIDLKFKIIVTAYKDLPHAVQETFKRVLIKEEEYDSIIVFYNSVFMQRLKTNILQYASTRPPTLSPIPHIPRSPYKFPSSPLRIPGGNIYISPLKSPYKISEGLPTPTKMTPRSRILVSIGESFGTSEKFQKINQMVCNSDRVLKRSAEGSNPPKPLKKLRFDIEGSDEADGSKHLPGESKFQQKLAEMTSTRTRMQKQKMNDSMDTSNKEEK
Sequence of pErk1/2-BSA 2.7x peptide-protein conjugate (human; bovine) (P02769 25-607 limits assumed): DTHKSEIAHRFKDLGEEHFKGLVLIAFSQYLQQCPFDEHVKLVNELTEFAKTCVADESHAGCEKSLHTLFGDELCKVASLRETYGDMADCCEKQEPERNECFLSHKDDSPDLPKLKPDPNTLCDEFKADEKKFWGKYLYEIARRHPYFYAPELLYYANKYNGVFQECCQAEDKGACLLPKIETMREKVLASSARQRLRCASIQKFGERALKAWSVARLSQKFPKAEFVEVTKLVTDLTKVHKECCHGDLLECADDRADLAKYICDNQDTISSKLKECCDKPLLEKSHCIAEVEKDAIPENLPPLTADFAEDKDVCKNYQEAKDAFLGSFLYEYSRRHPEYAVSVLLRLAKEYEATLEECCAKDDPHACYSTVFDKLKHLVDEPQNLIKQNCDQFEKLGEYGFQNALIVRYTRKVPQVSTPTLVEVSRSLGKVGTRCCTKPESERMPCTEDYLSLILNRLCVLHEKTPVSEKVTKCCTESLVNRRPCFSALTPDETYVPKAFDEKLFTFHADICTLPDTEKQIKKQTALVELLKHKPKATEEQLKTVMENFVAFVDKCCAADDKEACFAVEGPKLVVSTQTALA
Sequence of pRb-BSA 1x peptide-protein conjugate (bovine) (P02769 25-607 limits assumed): as above
Sequence of Histone H3-BSA 2.7x peptide-protein conjugate (bovine) (P02769 25-607 limits assumed): as above
Sequence of Erk1-BSA 2.7x peptide-protein conjugate (human; bovine) (peptide, as listed by the source limits assumed, chain 1 of 2): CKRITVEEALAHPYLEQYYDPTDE
Sequence of Erk1-BSA 2.7x peptide-protein conjugate (human; bovine) (P02769 25-607 limits assumed, chain 2 of 2): as the sequence (P02769 25-607 limits assumed) above

## Rb phospho (pRb) Ser807/811 antibody, Cell Signaling Technology #9308
[1]
  maximum standard curve signal: < 0.01 RFI
[2]
  maximum standard curve signal: < 0.01 RFI
[3]
  maximum standard curve signal: < 0.01 RFI
[4]
  maximum standard curve signal: < 0.01 RFI
[5]
  maximum standard curve signal: < 0.01 RFI
[6]
  maximum standard curve signal: < 0.01 RFI
[7]
  maximum standard curve signal: 0.01 RFI
[8]
  maximum standard curve signal: < 0.01 RFI
[9]
  maximum standard curve signal: < 0.01 RFI
[10]
  maximum standard curve signal: < 0.01 RFI
[11]
  maximum standard curve signal: < 0.01 RFI
[12]
  maximum standard curve signal: < 0.01 RFI
[13]
  signal intensity relative to the pRb-BSA peptide standard curves: 10%
[14]
  LOD: 0.024 nM
[15]
  LOD: 0.117 nM
[16]
  maximum standard curve signal: 0.01 RFI
[17]
  maximum standard curve signal: 0.01 RFI
[18]
  maximum standard curve signal: 0.03 RFI
[19]
  maximum standard curve signal: 0.47 RFI
[20]
  maximum standard curve signal: 0.04 RFI
[21]
  mean LOD: 0.025 nM
[22]
  mean LOD: 0.097 nM
[23]
  LOD: 0.026 nM
[24]
  LOD: 0.077 nM
[25]
  maximum standard curve signal: < 0.01 RFI
[26]
  maximum standard curve signal: < 0.01 RFI
[27]
  maximum standard curve signal: < 0.01 RFI
[28]
  maximum standard curve signal: 0.01 RFI
[29]
  maximum standard curve signal: < 0.01 RFI
[30]
  maximum standard curve signal: < 0.01 RFI
[31]
  maximum standard curve signal: 0.02 RFI
[32]
  maximum standard curve signal: < 0.01 RFI
[33]
  maximum standard curve signal: 0.07 RFI
[34]
  maximum standard curve signal: < 0.01 RFI
[35]
  maximum standard curve signal: < 0.01 RFI
[36]
  maximum standard curve signal: < 0.01 RFI
[37]
  maximum standard curve signal: < 0.01 RFI
[38]
  maximum standard curve signal: < 0.01 RFI
[39]
  maximum standard curve signal: < 0.01 RFI
[40]
  maximum standard curve signal: < 0.01 RFI
[41]
  maximum standard curve signal: < 0.01 RFI
[42]
  maximum standard curve signal: < 0.01 RFI
[43]
  maximum standard curve signal: 0.02 RFI
[44]
  maximum standard curve signal: < 0.01 RFI
[45]
  maximum standard curve signal: < 0.01 RFI
[46]
  maximum standard curve signal: < 0.01 RFI
[47]
  maximum standard curve signal: < 0.01 RFI
[48]
  maximum standard curve signal: < 0.01 RFI
